Measurements as given in article doi:10.1101/2022.11.21.516512.

Target: CTD-HAP40 complex bearing a C-terminal biotin tag (UniProt P23610)
Test: BLI

UniProt P23610, sequence (P23610 whole entry, looked up, one chain of several): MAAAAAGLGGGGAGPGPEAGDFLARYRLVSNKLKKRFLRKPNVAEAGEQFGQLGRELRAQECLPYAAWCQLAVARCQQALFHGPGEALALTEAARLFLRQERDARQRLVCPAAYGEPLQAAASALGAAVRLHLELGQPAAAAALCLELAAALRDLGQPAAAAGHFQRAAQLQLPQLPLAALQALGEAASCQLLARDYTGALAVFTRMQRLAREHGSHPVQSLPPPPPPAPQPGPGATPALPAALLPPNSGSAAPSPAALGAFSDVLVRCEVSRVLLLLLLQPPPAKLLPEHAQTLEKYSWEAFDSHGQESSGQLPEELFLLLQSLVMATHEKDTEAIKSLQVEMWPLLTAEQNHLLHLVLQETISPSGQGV

Kd: 10 nM
Substance: HTT N-terminal HEAT and bridge domain construct (NTD, aa. 97-2069) (domain or fragment)
